Source: paper PMC13208732 (2026)

Assays:
[1] = target: T1, recombinant human placental growth factor 2 (PlGF-2) (human, UniProt P49763-3 19-170); assay: ELISA; competition with biotinylated VEGFR1, 1 ug/mL heparin
T1 chain: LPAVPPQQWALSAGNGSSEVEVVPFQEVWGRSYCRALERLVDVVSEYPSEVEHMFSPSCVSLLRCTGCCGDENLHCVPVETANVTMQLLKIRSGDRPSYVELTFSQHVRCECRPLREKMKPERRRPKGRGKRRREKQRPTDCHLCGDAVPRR

[2] = target: T1, recombinant human placental growth …; assay: ELISA; competition with biotinylated VEGFR1, no heparin

IC50 [1]: 75.1 nM
IC50 [2]: 142 nM
B1: VEGFR1 domains 1 to 6 fused to a C-terminal Fc, biotinylated (Fc fusion)
chain: SKLKDPELSLKGTQHIMQAGQTLHLQCRGEAAHKWSLPEMVSKESERLSITKSACGRNGKQFCSTLTLNTAQANHTGFYSCKYLAVPTSKKKETESAIYIFISDTGRPFVEMYSEIPEIIHMTEGRELVIPCRVTSPNITVTLKKFPLDTLIPDGKRIIWDSRKGFIISNATYKEIGLLTCEATVNGHLYKTNYLTHRQTNTIIDVQISTPRPVKLLRGHTLVLNCTATTPLNTRVQMTWSYPDEKNKRASVRRRIDQSNSHANIFYSVLTIDKMQNKDKGLYTCRVRSGPSFKSVNTSVHIYDKAFITVKHRKQQVLETVAGKRSYRLSMKVKAFPSPEVVWLKDGLPATEKSARYLTRGYSLIIKDVTEEDAGNYTILLSIKQSNVFKNLTATLIVNVKPQIYEKAVSSFPDPALYPLGSRQILTCTAYGIPQPTIKWFWHPCNHNHSEARCDFCSNNEESFILDADSNMGNRIESITQRMAIIEGKNKMASTLVVADSRISGIYICIASNKVGTVGRNISFYITDVPNGFHVNLEKMPTEGEDLKLSCTVNKFLYRDVTWILLRTVNNRTMHYSISKQKMAITKEHSITLNLTIMNVSLQDSGTYACRARNVYTGEEILQKKEIT
modifications: biotin (EZ-Link Sulfo-NHS-Biotinylation Kit)
